Measurements: patent publication US11697680B2, “Anti-GP73 antibodies and immunoconjugates” (CUREAB GMBH, priority 2016, dated 2023)
“Also recorded” adds a separate entry of the source.

Legend:
HuH7 cells = test: Internalization of pHrodo Green labeled antibodies after pre-incubation with conditioned media containing soluble GP73; format: cell-based, human; conditions: 10 ug/ml pHrodo Green labeled antibody pre-incubated over night, 24 h at 37° C.
Description: Antibody internalization was measured by FACS using the pH-sensitive dye pHrodo Green coupled to each antibody. […] The internalization of G2-2 that binds to rGP73 is not altered as described in Example 6.
Labeled antibodies were purified by size exclusion (40K MWCO). A non binding Isotype Antibody that was not labeled with pHrodo® Green STP Ester (Iso.) was used as control for background fluorescence. 10 ug/ml of each antibody was pre-incubated over night at 4° C. with either fresh culture media or conditioned media. As conditioned media served either supernatant from HEK 293 or HEK 293 GP73-myc cells cultured for 72 hours, that was dialyzed (10 k MWCO) against 1 L fresh media each. To confirm the presence of secreted soluble GP73 after dialysis supernatants were analysed by Western Blot using an anti-myc antibody. 300 ul/well of each pre-incubated antibody was given to 0.6×10^6HuH7 cells growing in 24 well plates for 24 h at 37° C. and 5% CO2. Cells were washed and analysed by FACS.

peptide AA 36-55 of GP73 [1] = molecular target: T1, peptide AA 36-55 of GP73 (Homo sapiens, UniProt Q8NBJ4); test: pH dependent peptide ELISA; format: binding; conditions: pH range of 7.4 to 5.4
Description: A peptide ELISA was performed to test for pH dependency of binding to peptide AA 36-55 of GP73.
(§1) ELISA was carried out in 96 well plates coated overnight with biotinylated peptide and blocked with 2% gelatine. Horse radish peroxidase labeled antibodies G2-1 (G2-1-HRP) or G2-2 (G2-2-HRP) were applied and incubated for 1.5 hours. For competition testing non labeled G2-1 or G2-2 was added at high concentration. For pH dependent binding the antibodies were applied in phosphate buffer pH 4.4, 5.4, 6.4 or 7.4. After extensive washing a chromogenic substrate (TMB Amersham) was added to detect peroxidase. The reaction was stopped and absorbance was read at 450 nm.

GP73 peptide: […] = molecular target: T2, GP73 peptide: […] (Homo sapiens, UniProt Q8NBJ4); test: Biacore surface plasmon resonance, data fit for 1:1 binding; conditions: Biacore 1:1 binding fit, GP73 peptide SSRSVDLQTRIMELEGRVRR
T2 construct: GP73 peptide: […]
Description: In one embodiment, Kd is measured using surface plasmon resonance assays using a BIACORE®-2000 or a BIACORE®-3000 (BIAcore, Inc., Piscataway, N.J.) at 25° C. with immobilized antigen CM5 chips at […] response units (RU). Briefly, carboxymethylated dextran biosensor chips (CM5, BIACORE, Inc.) are activated with N-ethyl-N′-(3-dimethylaminopropyl) carbodiimide hydrochloride (EDC) and N-hydroxysuccinimide (NHS) according to the supplier's instructions. Antigen is diluted with 10 mM sodium acetate, pH 4.8, to 5 μg/ml (−0.2 μM) before injection at a flow rate of 5 μl/minute to achieve approximately 10 response units (RU) of coupled protein. Following the injection of antigen, 1 M ethanolamine is injected to block unreacted groups. For kinetics measurements, two-fold serial dilutions of antibody (0.58 nM to 200 nM) are injected in PBS with 0.05% polysorbate 20 (TWEEN-20™) surfactant (PEST) at 25° C. at a flow rate of approximately 25 μl/min. Association rates (kon) and dissociation rates (koff) are calculated using a simple one-to-one Langmuir binding model (BIACORE® T100 Evaluation Software) by simultaneously fitting the association and dissociation sensorgrams. The equilibrium dissociation constant (Kd) is calculated as the ratio koff/kon. See, e.g., Chen et al., J. Mol. Biol. 293:865-881 (1999). If the on-rate exceeds […] s^−1 by the surface plasmon resonance assay above, then the on-rate can be determined by using a fluorescent quenching technique that measures the increase or decrease in fluorescence emission intensity (excitation=295 nm; emission=340 nm, 16 nm band-pass) at 25° C. of a 20 nM anti-antigen antibody in PBS, pH 7.2, in the presence of increasing concentrations of antigen as measured in a spectrometer, such as a stop-flow equipped spectrophometer (Aviv Instruments) or a 8000-series SLM-AMINCO™ spectrophotometer (ThermoSpectronic) with a stirred cuvette.

peptide AA 36-55 of GP73 [2] = molecular target: T1, peptide AA 36-55 of GP73; test: Competition peptide ELISA with HRP-labeled antibodies; format: binding; conditions: unlabeled competing antibody at high concentration; binding antibody G2-1-HRP
Description: A peptide ELISA was performed using horse radish peroxidase labeled G2-1 (G2-1-HRP) or G2-2 (G2-2-HRP) as binding antibodies and G2-1 or G2-2 as competing antibodies. […] Binding to peptide AA 36-55 of GP73 served as positive control (filled circle), negative control was binding to an unrelated peptide (filled diamond) as described in Example 5.
as §1

B1: G2-2: scFv clone with human IgG1 heavy and human Igk light constant regions; VH/VL SEQ ID NO: 2 and 3; binds rGP73 AA 36-55 (antibody, V domains shown)
VH: EVQLLQSGGGVVQPGRSLRLSCAASGFTFSSYGMSWVRQAPGKGLEWVAVISYDGSNKYYADSVKGRFTISRDNSKNTLYLQMNSLRAEDTAVYYCAREGSAGMDVWGQGTTVTVSS
VL: DIQMTQPSSLSASPGASASLTCTLRSDISVGFHRIYWYQQKPGSPPQYLLRYKSDSDKQQGSGVPSRFSGSKDASANAGILLISGLQSDDEADYYCVIWHTSGVVFGGGTKVEIK
modifications: human IgG1 and Igk constant regions not cited; G2-2 heavy chain variable region (VH); G2-2 light chain variable region (VL)
effect of conditioned media containing soluble GP73 on antibody internalization / cell surface binding (HuH7 cells): unaffected; also recorded: not altered
pH dependency of binding to peptide AA 36-55 of GP73 (peptide AA 36-55 of GP73 [1]): Stable binding
koff, measurement 1 + 2 mean (GP73 peptide: […]): 0.001108 s⁻¹
kon, measurement 1 + 2 mean (GP73 peptide: […]): 260200 M⁻¹ s⁻¹
Kd (GP73 peptide: […]; read-out: Kd, measurement 1 + 2 mean): 4.29 nM
competition with G2-1-HRP for peptide binding (peptide AA 36-55 of GP73 [2]): Competitive inhibition
